Source: PMC314469, “Protein Interaction Networks by Proteome Peptide Scanning” (PLoS Biology, 2004)
One block for each binder: values may come before it.

Molecular target: T1, Abp1 SH3 (ABP1_YEAST), P15891
T1 chain: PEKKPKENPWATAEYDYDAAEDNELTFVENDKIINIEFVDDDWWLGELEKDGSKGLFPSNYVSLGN
Test: SPOT array

B1: YIL095W 739-752 (peptide)
chain: TKSNGKDKSRPPRP
normalised SPOT signal, Boehringer light units (BLU); mean over the file's lines of this peptide: 141

B4: YKL108W 250-262 (peptide)
chain: STSFSPSPLIRRP
normalised SPOT signal, Boehringer light units (BLU); mean over the file's lines of this peptide: 550

B6: YDR176W 125-138 (peptide)
chain: TNIIDKGVQSPPKP
normalised SPOT signal, Boehringer light units (BLU); mean over the file's lines of this peptide: 140

B10: YIR002C 128-141 (peptide)
chain: TKKAKIIFTAPTRP
normalised SPOT signal, Boehringer light units (BLU); mean over the file's lines of this peptide: 87.4

B11: YGL122C 280-292 (peptide)
chain: TKVSNEYPNSPKP
normalised SPOT signal, Boehringer light units (BLU); mean over the file's lines of this peptide: 146

B12: YBR208C 1266-1278 (peptide)
chain: TSGPHGSPDFFKP
normalised SPOT signal, Boehringer light units (BLU); mean over the file's lines of this peptide: 64.2

B13: YCL027W 383-396 (peptide)
chain: TEKHELIIPTPSKP
normalised SPOT signal, Boehringer light units (BLU); mean over the file's lines of this peptide: 57

B14: YJR024C 74-86 (peptide)
chain: TLEYLRSPKLYKP
normalised SPOT signal, Boehringer light units (BLU); mean over the file's lines of this peptide: 193

B15: YCR033W 957-970 (peptide)
chain: SVQQSQILIQPERP
normalised SPOT signal, Boehringer light units (BLU); mean over the file's lines of this peptide: 73

B20: YFR022W 627-640 (peptide)
chain: SYPSAIQNVQPRKP
normalised SPOT signal, Boehringer light units (BLU); mean over the file's lines of this peptide: 105

B21: YDR379W 561-573 (peptide)
chain: TPPLESGPLFKRP
normalised SPOT signal, Boehringer light units (BLU); mean over the file's lines of this peptide: 55.6

B22: YDL227C 82-95 (peptide)
chain: TAGHKLSVRVPTKP
normalised SPOT signal, Boehringer light units (BLU); mean over the file's lines of this peptide: 638

B23: YHR102W 753-765 (peptide)
chain: THTNLAPPPTMKP
normalised SPOT signal, Boehringer light units (BLU); mean over the file's lines of this peptide: 136

B25: YHR102W 715-728 (peptide)
chain: TKLSTHKASSPSRP
normalised SPOT signal, Boehringer light units (BLU); mean over the file's lines of this peptide: 170

B26: YJL045W 457-470 (peptide)
chain: TIADTLQPGLPHKP
normalised SPOT signal, Boehringer light units (BLU); mean over the file's lines of this peptide: 127

B28: YKL085W 88-101 (peptide)
chain: TDMVLIPAGVPRKP
normalised SPOT signal, Boehringer light units (BLU); mean over the file's lines of this peptide: 122

B29: YKL178C 248-261 (peptide)
chain: TIWNTIIKFDPGRP
normalised SPOT signal, Boehringer light units (BLU); mean over the file's lines of this peptide: 180

B31: YBL047C 1258-1270 (peptide)
chain: TLTSSSNPTIPKP
normalised SPOT signal, Boehringer light units (BLU); mean over the file's lines of this peptide: 129

B32: YBL009W 142-155 (peptide)
chain: TKVTNSKFRTPLRP
normalised SPOT signal, Boehringer light units (BLU); mean over the file's lines of this peptide: 137

B35: YBR058C 192-205 (peptide)
chain: TSPHTENFQIPSKP
normalised SPOT signal, Boehringer light units (BLU); mean over the file's lines of this peptide: 66.6

B36: YGL021W 216-229 (peptide)
chain: STSSENRLRTPLKP
normalised SPOT signal, Boehringer light units (BLU); mean over the file's lines of this peptide: 76.6

B37: YIL110W 72-84 (peptide)
chain: TFEEFQSPIYRKP
normalised SPOT signal, Boehringer light units (BLU); mean over the file's lines of this peptide: 98.3

B39: YCL048W 21-34 (peptide)
chain: THALGAAIDPPRRP
normalised SPOT signal, Boehringer light units (BLU); mean over the file's lines of this peptide: 53.7

B41: YBR122C 34-47 (peptide)
chain: SYPGSTRITLPRRP
normalised SPOT signal, Boehringer light units (BLU); mean over the file's lines of this peptide: 568

B45: YHR099W 870-882 (peptide)
chain: SVLAPYLPFLMKP
normalised SPOT signal, Boehringer light units (BLU); mean over the file's lines of this peptide: 8.6

B46: YHR100C 9-21 (peptide)
chain: TLRLLYNPSLSKP
normalised SPOT signal, Boehringer light units (BLU); mean over the file's lines of this peptide: 61

B48: YJR061W 698-711 (peptide)
chain: TMFSGVSAFVPNRP
normalised SPOT signal, Boehringer light units (BLU); mean over the file's lines of this peptide: 451

B49: YGL167C 571-584 (peptide)
chain: TFTGLIGMNDPPRP
normalised SPOT signal, Boehringer light units (BLU); mean over the file's lines of this peptide: 83.7

B50: YBL031W 191-203 (peptide)
chain: TPLSKPKPFMHKP
normalised SPOT signal, Boehringer light units (BLU); mean over the file's lines of this peptide: 11300

B51: YGL027C 137-150 (peptide)
chain: SVRVQGEPLDPKRP
normalised SPOT signal, Boehringer light units (BLU); mean over the file's lines of this peptide: 80

B52: YKL027W 380-393 (peptide)
chain: STRLTLTKWDPSKP
normalised SPOT signal, Boehringer light units (BLU); mean over the file's lines of this peptide: 209

B53: YBR115C 740-752 (peptide)
chain: TLITFMVPRFDKP
normalised SPOT signal, Boehringer light units (BLU); mean over the file's lines of this peptide: 0

B56: YGR127W 236-248 (peptide)
chain: TMNTIYVPPLRRP
normalised SPOT signal, Boehringer light units (BLU); mean over the file's lines of this peptide: 3360

Now from value to binder:

normalised SPOT signal, Boehringer light units (BLU); mean over the file's lines of this peptide: 108
B2: YPL226W 815-827 (peptide)
chain: TDVTFSYPGAQKP

normalised SPOT signal, Boehringer light units (BLU); mean over the file's lines of this peptide: 200
B3: YML061C 94-106 (peptide)
chain: TDIHKEDPVDKKP

normalised SPOT signal, Boehringer light units (BLU); mean over the file's lines of this peptide: 749
B5: YMR124W 350-362 (peptide)
chain: TNGPRYSPQNPRP

normalised SPOT signal, Boehringer light units (BLU); mean over the file's lines of this peptide: 36.5
B7: YNL251C 479-491 (peptide)
chain: TDSGRNGPRSGKP

normalised SPOT signal, Boehringer light units (BLU); mean over the file's lines of this peptide: 216
B8: YMR167W 278-290 (peptide)
chain: SVYSNYLPKGNRP

normalised SPOT signal, Boehringer light units (BLU); mean over the file's lines of this peptide: 54.1
B9: YMR185W 853-865 (peptide)
chain: TSLSIVRPNDSKP

normalised SPOT signal, Boehringer light units (BLU); mean over the file's lines of this peptide: 388
B16: YNL020C 51-64 (peptide)
chain: SVASLKRVIVPDKP

normalised SPOT signal, Boehringer light units (BLU); mean over the file's lines of this peptide: 1030
B17: YPR096C 5-17 (peptide)
chain: TGVSIKNPRPSRP

normalised SPOT signal, Boehringer light units (BLU); mean over the file's lines of this peptide: 109
B18: YOR118W 248-260 (peptide)
chain: TAIRTVMPNLLKP

normalised SPOT signal, Boehringer light units (BLU); mean over the file's lines of this peptide: 65.4
B19: YPR171W 199-212 (peptide)
chain: TDGNEEKPLLPTRP

normalised SPOT signal, Boehringer light units (BLU); mean over the file's lines of this peptide: 90.3
B24: YPR022C 958-970 (peptide)
chain: SYNINSDPVITRP

normalised SPOT signal, Boehringer light units (BLU); mean over the file's lines of this peptide: 133
B27: YKR098C 130-143 (peptide)
chain: TIKRKRAYSLPLRP

normalised SPOT signal, Boehringer light units (BLU); mean over the file's lines of this peptide: 133
B30: YML109W 280-292 (peptide)
chain: TKFDDEPPLADKP

normalised SPOT signal, Boehringer light units (BLU); mean over the file's lines of this peptide: 40.3
B33: YOL148C 219-231 (peptide)
chain: TNTVDVTPKENKP

normalised SPOT signal, Boehringer light units (BLU); mean over the file's lines of this peptide: 1330
B34: YMR044W 280-292 (peptide)
chain: TKAKKEKPKPPKP

normalised SPOT signal, Boehringer light units (BLU); mean over the file's lines of this peptide: 140
B38: YPL110C 407-419 (peptide)
chain: SYILEELPIHLRP

normalised SPOT signal, Boehringer light units (BLU); mean over the file's lines of this peptide: 240
B40: YPL160W 891-903 (peptide)
chain: SVQNAKFPRASKP

normalised SPOT signal, Boehringer light units (BLU); mean over the file's lines of this peptide: 93.7
B42: YLR249W 670-682 (peptide)
chain: TNMEFQYPGTSKP

normalised SPOT signal, Boehringer light units (BLU); mean over the file's lines of this peptide: 62.4
B43: YOR160W 317-329 (peptide)
chain: SVVISKNPDFFKP

normalised SPOT signal, Boehringer light units (BLU); mean over the file's lines of this peptide: 113
B44: YOL153C 56-68 (peptide)
chain: TFDVPASPQSKKP

normalised SPOT signal, Boehringer light units (BLU); mean over the file's lines of this peptide: 42.7
B47: YKR086W 737-749 (peptide)
chain: TDELSKFPFIDKP

normalised SPOT signal, Boehringer light units (BLU); mean over the file's lines of this peptide: 67.7
B54: YMR011W 36-49 (peptide)
chain: TKSEYTNAELPAKP

normalised SPOT signal, Boehringer light units (BLU); mean over the file's lines of this peptide: 102
B55: YPL088W 324-337 (peptide)
chain: TEEEIKYLEEPYKP

normalised SPOT signal, Boehringer light units (BLU); mean over the file's lines of this peptide: 78.1
B57: YML016C 58-71 (peptide)
chain: TNSNVPDPSTPSKP

normalised SPOT signal, Boehringer light units (BLU); mean over the file's lines of this peptide: 54
B58: YPL015C 81-93 (peptide)
chain: TLAKELYPGNFRP
